For assay [1], the target named is botulinum neurotoxin type A (BoNT/A), pure holotoxin (Clostridium botulinum (type A serotype), UniProt P0DPI0 2-1296). The assay can be described thus: cell-based or functional assay.
The target of assay [2] is T1, BoNT/A Hc (C-terminal domain of botulinum neurotoxin type A heavy chain, binding domain) (Clostridium botulinum (type A serotype), UniProt P0DPI0 860-1296).
The target in assay [3] is T1, BoNT/A Hc (C-terminal domain of …). The assay can be described thus: SPR (BIAcore), BoNT/A Hc coupled to CM5 chip, purified scFv in flow. On the technique in general: In SPR one partner is held on a chip, and binding of the other changes the refractive index at the surface.

We go through 4 molecules from patent US20020155114A1 (published 2002).

The term Kd denotes a measure of binding affinity in units of concentration. Low values mean higher affinity, high ones lower affinity. The term koff denotes a measure of how fast the partners let go of each other. High values mean fast dissociation, low ones slow dissociation. What is called kon is a measure of how fast the partners come together. A higher kon goes with faster complex formation.

T1 sequence (P0DPI0 860-1296): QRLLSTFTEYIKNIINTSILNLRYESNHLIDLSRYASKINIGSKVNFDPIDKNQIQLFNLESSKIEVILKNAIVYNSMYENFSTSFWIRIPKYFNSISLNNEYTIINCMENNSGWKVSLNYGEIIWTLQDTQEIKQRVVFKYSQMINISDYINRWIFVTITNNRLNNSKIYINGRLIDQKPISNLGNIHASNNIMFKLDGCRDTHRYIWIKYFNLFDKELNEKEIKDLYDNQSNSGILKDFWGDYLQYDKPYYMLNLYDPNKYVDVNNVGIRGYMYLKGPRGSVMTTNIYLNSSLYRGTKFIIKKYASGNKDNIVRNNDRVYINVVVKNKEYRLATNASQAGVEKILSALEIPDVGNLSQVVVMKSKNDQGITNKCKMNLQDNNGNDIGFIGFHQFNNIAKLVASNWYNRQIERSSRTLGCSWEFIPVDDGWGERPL
Sequence of botulinum neurotoxin type A (BoNT/A), pure holotoxin (P0DPI0 2-1296 limits assumed): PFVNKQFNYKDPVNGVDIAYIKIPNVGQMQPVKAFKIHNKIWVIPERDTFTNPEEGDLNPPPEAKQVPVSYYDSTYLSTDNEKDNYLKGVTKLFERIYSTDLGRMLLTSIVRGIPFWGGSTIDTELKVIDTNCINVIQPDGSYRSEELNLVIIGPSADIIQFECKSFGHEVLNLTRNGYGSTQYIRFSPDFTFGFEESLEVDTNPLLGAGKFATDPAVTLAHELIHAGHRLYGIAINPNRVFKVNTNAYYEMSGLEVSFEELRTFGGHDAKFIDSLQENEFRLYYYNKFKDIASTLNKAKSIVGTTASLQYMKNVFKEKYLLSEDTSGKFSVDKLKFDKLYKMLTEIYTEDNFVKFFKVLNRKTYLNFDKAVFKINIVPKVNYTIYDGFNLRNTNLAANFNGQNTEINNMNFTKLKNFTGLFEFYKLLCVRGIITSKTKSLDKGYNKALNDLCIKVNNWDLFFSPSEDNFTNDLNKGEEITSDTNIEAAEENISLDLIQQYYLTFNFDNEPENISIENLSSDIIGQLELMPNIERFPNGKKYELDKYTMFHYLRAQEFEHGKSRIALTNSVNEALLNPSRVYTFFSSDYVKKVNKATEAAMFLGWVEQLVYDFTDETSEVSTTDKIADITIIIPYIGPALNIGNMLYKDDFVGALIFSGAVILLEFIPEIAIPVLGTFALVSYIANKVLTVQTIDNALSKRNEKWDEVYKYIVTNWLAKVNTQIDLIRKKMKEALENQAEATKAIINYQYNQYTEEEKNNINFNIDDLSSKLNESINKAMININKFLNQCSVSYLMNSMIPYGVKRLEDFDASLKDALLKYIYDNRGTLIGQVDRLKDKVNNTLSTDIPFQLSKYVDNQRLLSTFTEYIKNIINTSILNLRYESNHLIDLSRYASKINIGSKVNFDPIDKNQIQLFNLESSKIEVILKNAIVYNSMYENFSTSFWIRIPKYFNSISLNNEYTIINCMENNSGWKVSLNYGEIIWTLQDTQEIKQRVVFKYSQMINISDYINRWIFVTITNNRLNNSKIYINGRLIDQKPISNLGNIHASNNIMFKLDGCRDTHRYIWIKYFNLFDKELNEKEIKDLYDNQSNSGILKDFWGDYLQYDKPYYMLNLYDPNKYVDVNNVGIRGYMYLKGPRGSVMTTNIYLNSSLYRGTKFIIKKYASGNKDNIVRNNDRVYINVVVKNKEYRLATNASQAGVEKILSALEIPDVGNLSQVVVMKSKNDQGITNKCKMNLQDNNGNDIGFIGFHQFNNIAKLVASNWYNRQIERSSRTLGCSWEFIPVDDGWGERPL

B1: scFv C25 (scFv)
scFv: QVQLQESGGGLVKPGGSLKLSCAASGFTFSDYYMYWVRQTPEKRLEWVATISDGGSYTYYPDSVKGRFTISRDNAKNNLYLQMSSLKSEDTAMYYCSRYRYDDAMDYWGQGTTVTVSSGGGGSGGGGSGGGGSDIELTQSPASLAVSLGQRATISCRASESVDSYGHSFMQWYQQKPGQPPKLLIYRASNLEPGIPARFSGSGSGTDFTLTINPVEADDVATYYCQQSNEDPFTFGSGTKLEIKR
As to B1, in assay [1], the “prolongation of the time to neuroparalysis (against BoNT/A alone)” value worked out at 2.7 fold.

B2: scFv 1F3 (scFv)
scFv: EVQLQQSGAELVKPGASVKLSCKASGYTFTSFWMHWVKQAPGRGLEWIGRLDPNSGETKYNEKFKSKATLTVDKPSSTAYMELSSLTSEDSAVYYCAREAYGYWNFDVWGTGTTVTVSSGGGGSGGGGSGGGGSDIELTQSPASMSASPGEKVTMTCRATSSVSSSYLHWYQQKSGASPKLWIYSASNLASGVPSRFSGSGSGTSYSLTISSVEAEDAATYYCQQYIGYPYTFGGGTKLEIKR
Regarding B2, the Kd in assay [2] stood at 12 nM. In assay [3], this molecule registered a koff of 0.011 s⁻¹ and a kon of 920000 M⁻¹ s⁻¹.

B3: scFv S25 (scFv)
scFv: QVKLQQSGAELVRPGASVKLSCKASGYSLTSYWMNWVKQRPGQGLEWIGMIHPSDSDTRFNQKFEDKATLTVDTSSSTAYMQLSSPTSEDSAVYYCARGLYNGFWYFDVWGQGTTVTVSSGGGGSGGGGSGGGGSDIELTQSPALMAASPGEKVIITCSVSSSISSSNLHWYQQKSGTSPKPWIYGTSNLASGVPVRFSGSGSGTSYSLTISSMEAEDAATYYCQQWSSYPLTFGAGTKLEIKR
As to B3, the Kd in assay [2] stood at 73 nM. Further, the “prolongation of the time to neuroparalysis (against BoNT/A alone)” value in assay [1] is 1.5 fold. In assay [3], this molecule displayed a koff of 0.00082 s⁻¹ and a kon of 11000 M⁻¹ s⁻¹.

B4: scFv 1C6 (scFv)
scFv: QIQLLQSGGGVVQPGRSLRLSCAASGFTFSSYAMHWVRQAPGKGLEWVAVISYDGSNKYYADSVKGRFTISRDNSKNTLYLQMNSLRAEDTAVYYCARDWSEGYYYYGMDVWGQGTTVIVSSGGGGSGGGGSGGGGSDIELTQSPASLAVSLGRRATTSCRASESVEYYGTSLMQWYQQKPGQPPKLLIYAASNVESGVPARFSGSGSGTDFSLNIHPVEEEDIAMYFCQQSRKVPWTFGGGTKLEIKR
With B4, the Kd in assay [2] was 20 nM. Besides, in assay [3], the koff was found to be 0.0025 s⁻¹ and the association rate constant (kon) stood at 130000 M⁻¹ s⁻¹.
